Assay [1] concerns the target T1, GRP75 (Enzo Life Sciences) (UniProt P38646 47-679, limits assumed).
T1 construct: Purchased protein coated in ELISA
The experiment in a line: phage ELISA. As for the experimental part: Each codon in the bracket in the forward primer sequence of the second fragment was replaced with NNK. Subsequently, these PCR fragments were purified and subjected to overlap extension PCR. The overlap extension PCR was performed using 100 ng PCR fragments each by after preparatory modification of DNA at 95° C. for 5 minutes, 30 cycles of DNA modification at 95° C. for 30 seconds, combination of primers at 56° C. for 30 seconds, and elongation at 72° C. for 30 seconds, and then it was terminated after incubation for 5 minutes. The obtained overlap extension PCR products were purified and subcloned into a pComb3XSS phagemid vector using Sfi I restriction enzyme and transformed into *Escherichia coli* [See C. F. Barbas, Phage Display: a Laboratory Manual, Cold Spring Harbor Laboratory Press, Cold Spring Harbor, N Y, 2001]. From the output titer plate, phages were rescued from randomly selected colonies and subjected to ELISA [See C. F. Barbas, Phage Display: a Laboratory Manual, Cold Spring Harbor Laboratory Press, Cold Spring Harbor, N Y, 2001].
Example 3. Screening of Modified scFv with Enhanced Specificity from the HCDR3 Site-Directed Mutagenesis Library Based on the result of Example 2, to generate monoclonal antibody clones nonreactive to Hsp70 but reactive to ROS1, HCDR3 site-directed mutagenesis libraries were constructed. […]
For orientation: An ELISA detects its analyte on a solid surface through an enzyme-linked reagent.

The target of assay [2] is T1, GRP75 (Enzo Life Sciences). The assay can be described thus: ELISA, GRP75 coated, detection with HRP anti-rabbit IgG. The method, then:
Microtiter plates (Costar, Cambridge, MA, USA) were coated with 100 ng of a recombinant ROS1 (37-290 amino acids)-Cκ fusion protein, an irrelevant protein (recombinant PSA (prostate cancer specific antigen; NP_001025218.1))-Cκ fusion protein the synthetic peptide ([…]-[…])-BSA conjugate or GRP75 (Enzo Life Sciences, Farmingdale, NY, USA) dissolved in coating buffer (0.1 M sodium bicarbonate, pH 8.6). After blocking, 3B20-rFc or 3B20-G1K (the first amino acid G of HCDR3 of 3B20 was substituted to K)-rFc fusion proteins were added. The amounts of bound antibodies were determined using a horseradish peroxidase (HRP)-conjugated goat anti-rabbit IgG antibody (Abcam, Cambridge Science Park, Cambridge, UK) and 2,20-azinobis [3-ethylbenzothiazoline-6-sulfonic acid]-diammonium salt (ABTS) substrate solution (Amresco LLC, Solon, OH, USA). All experiments were performed in triplicate.
To test the specificity of 3B20-GlK, a recombinant 3B20-G1K scFv-Cκ fusion protein was prepared. Then ELISA, immunoblot, and immunoprecipitation analyses were performed in parallel with 3B20 for the prepared fusion protein. […] After blocking, the 3B20-rFc fusion protein or 3B20-G1K-rFc fusion protein was added to the well in a concentration of 0 to 2000 ng/ml, and the amount of the fusion protein combined to the well was measured by ELISA using the HRP-conjugated anti-rabbit IgG antibody and ABTS solution. […]

T1 sequence (P38646 47-679 limits assumed): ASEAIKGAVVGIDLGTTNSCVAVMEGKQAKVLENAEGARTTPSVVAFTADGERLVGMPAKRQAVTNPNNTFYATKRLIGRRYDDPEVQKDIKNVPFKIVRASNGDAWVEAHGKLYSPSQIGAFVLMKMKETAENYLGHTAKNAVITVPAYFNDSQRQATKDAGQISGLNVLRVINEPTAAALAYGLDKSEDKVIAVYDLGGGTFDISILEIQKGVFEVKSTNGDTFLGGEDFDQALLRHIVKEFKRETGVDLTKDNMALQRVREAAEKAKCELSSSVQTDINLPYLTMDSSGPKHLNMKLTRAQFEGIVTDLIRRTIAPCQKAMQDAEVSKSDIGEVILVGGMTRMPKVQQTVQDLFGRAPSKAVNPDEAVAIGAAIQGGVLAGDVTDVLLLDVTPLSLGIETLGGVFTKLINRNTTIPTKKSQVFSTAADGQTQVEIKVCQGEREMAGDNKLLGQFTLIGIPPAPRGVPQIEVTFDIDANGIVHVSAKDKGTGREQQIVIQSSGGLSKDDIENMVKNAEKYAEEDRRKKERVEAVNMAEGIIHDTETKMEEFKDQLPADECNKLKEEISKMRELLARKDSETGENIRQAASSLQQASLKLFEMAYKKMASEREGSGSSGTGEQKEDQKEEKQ

B1: 3B20-G1K scFv (phage-displayed clone) (scFv)
scFv: LTQPSSVSANLGGTVKITCSGGSYGYGWYQQKAPGSAPATVIYDNTNRPSDIPSRFSGSKSGSTGTLTITGVQVEDEAVYYCGSADSSSIATFGAGTTLTVLGQSSRSSGGGGSSGGGGSAVTLDESGGGLQTPGGTLSLVCKASGFSFSDRGMHWMRQAPGKGLEYVGAISGDGYITHYGAAVKGRATISRDNGQSTVRLQLNNLRAEDTATYYCTRKGGGNIDAWGHGTEVIVSSTS
notes: Clone from the HCDR3 first-residue NNK library in pComb3XSS, tested as phage in ELISA; also called 3B20-GIK
In the case of B1, the binding result in assay [1] is “no binding”.

B2: 3B20-G1K scFv-rFc fusion protein (Fc fusion)
scFv: B1 scFv
notes: also called 3B20-G1K-rFc; 3B20(scFv)-G1K-rFc fusion protein; not shown: rabbit antibody Fc (rFc)
With B2, the binding result in assay [2] is given as “no binding (tested: 2 µg/mL)”.

Values taken from patent publication US12077599 (SEOUL NATIONAL UNIVERSITY R AND DB FOUNDATION NATIONAL …, dated 2024).
